From the DeepSol protein solubility set

assay: soluble on expression in E. coli; label from the status in PepcDB or PDB records

| Sequence | soluble on expression in E. coli |
| --- | --- |
| MVAELAGQQDPGLGAFSCQEARRAWLDRHGNLDEAVEECVRTRRRKVQELQSLGFGPEEGSLQALFQHGGDVSRALTELQRQRLEPFRQRLWDSGPEPTPSWDGPDKQSLVRRLLAVYALPSWGRAELALSLLQETPRNYELGDVVEAVRHSQDRAFLRRLLAQECAVCGWALPHNRMQALTSCECTICPDCFRQHFTIALKEKHITDMVCPACGRPDLTDDTQLLSYFSTLDIQLRESLEPDAYALFHKKLTEGVLMRDPKFLWCAQCSFGFIYEREQLEATCPQCHQTFCVRCKRQWEEQHRGRSCEDFQNWKRMNDPEYQAQGLAMYLQENGIDCPKCKFSYALARGGCMHFHCTQCRHQFCSGCYNAFYAKNKCPEPNCRVKKSLHGHHPRDCLFYLRDWTALRLQKLLQDNNVMFNTEPPAGARAVPGGGCRVIEQKEVPNGLRDEACGKETPAGYAGLCQAHYKEYLVSLINAHSLDPATLYEVEELETATERYLHVRPQPLAGEDPPAYQARLLQKLTEEVPLGQSIPRRRK | soluble |
| MRLWRICFKDPEPFIELYFHKVFREDYTLLQYSETGEAVAHLQMLPYQLRIFGTSFSAGYISGACTHPDHRGKGIMRTMMAEALSAIYDRGDICSFLIPAETWLYDFYSRSGGYAPAFGRKQFLYRPNSIPQKFPSGYACTIGQGDYSFLSAEEHTDIRLAVQHTLGQWQTALKDFSLAGGNVAMLQDSAGKTVSQACFVPRENSLDIKLLVGDAEATFILVDHLLRSLDCDHASILAHSGSAPYGMLRILRPIPILEAFAQYHPAEGYSFAYSDPLFSQHNGTYHISKGRIVFSNNVQPENSLLPHHTPDSLVKDLFSPFPSALFLMLD | not soluble |
| MNTMNSVLKYKELALYGGSFDPLHKAHLAIIEQTLELLPSAKLIVLPAYQNPFKKPCFLDAQTRFKELERALKGIDRVLLSDFEIKQERAVPTIESVLHFQKLYHPQTLYLVIGADCLRHLSSWTNAKELLKRVELVVFERIGYEEIQFKGHYHPLKGIDAPISSSAIRASLGV | not soluble |
| LKLKDRVKLFLTPQNALFEVLQKYSEDFLNGEEVVKDNFKIDTAAAMSFSAVFACNRVLSETLASCPIMLYEKDDKGNRRQVTDTAEYGVLHYAPNAEMTPVQFKEFGMTNINLGGNFIAQKVFNMHGELLELRPIAWDRVRIDIDKSTGRLLYYIDGKQEPKTRDEIFHIPGLTLDGYIGITPLSYAALTIDIGLSQDTFERNFYHNRASTSGIFQYPNELSDEAFQRLKKDIKKNYTGLSNAGVPMILEGGGQFKEITMKLTDAQFLESKRFRIEDVCRIFRVPLHLVQDLTRSTNNNIEHQSLEFIVYTMLPWFKKWEENLNLQLLSKESRRKNRYFEFNISGLLRGDIKSRYEAYAQGRQWGWLSVNDIRRLENMNPIDNGDRYLEPLNMSEAGKQEEQLKALREEIFNMINERK | soluble |
| MSLDDYTVRVRVPGGEWKDLFEYNVQVDMDRVQDASMVQFDMGSLVEVMVKKNNGTIHEVDIRPQVNDIRYVQYKNVITFMLDKPRYLSVEFNGDRLHNLHVFANPMETETYSKEEKGVMYFGPGVHRPKDLPNNQIRIPSNTTVYLAPGAVVKAKLWVDKAENVRIVGRGILDHPIRGIEITDSKNVVVDGITVINPDHYTVFGGGSVGVTIRNLKSFSCKGWSDGIDMMCCHDVLIDNVFMRNSDDCIALYNHRWNWWGGSDNITVQNSILWADIAHPINVGGHGDPESLIGETIENLIFRNIDILEHDEDDVPYQGCMAIDAGDRNRVKNILFEDIRVESIQEGKLFHINIRFNPKYDKQPGQSIDGVTFRNITYNGVGENPSLIKGLDKERMVRNITFENVVVNGEKIKDLKGFITNEYIEGIKIKEGHHHHHH | not soluble |
| MSLSFSMKIKNIPYYVATRVVKRIQSWLGLNTLGARAIVTNAEGHVLLVKHTYQPHWYLPGGGVKKGESTKAAVIRELHEEVGLVVAEQDVILFGIYHHKYLGVNDYPVIYIVKNFTSHVTHSGEIEQIGWFSLDALPEMVSPGTKRRLGEYFDNNPISEKWEGHHHHHH | soluble |
| MGSDKIHHHHHHMQTIKLYIKDWLAIHPYIQQQATDRYFVDLANRLYSTCTIREIPESIKKKLCLYTAAYFEDVISGLGLWQAFIKKHLELYDTSLPFYTIRPDYIKDEINEEDIRFIIWNTLEKAPYKHPYINPMDRNIEETSHSFFRILDEEYETAPANDTLQDFFMDFKGKENANHKLRWLFGHTYLTEPSVQEYIAQVTETDKFIIPCGPLALFLHEWIDLLTNGETECWEEIEGLYPAIPEISDEMKERNHHTYQLFTQGTNGARIVYLEGYKELHRFLTQVLQWPDDSNHTLPQMKEHKDFIMMVNSEKGILLAKDICKYISDPLNPMYDAATAAQEAFSLLTIPTKCPPDLMEYVINNHYIPDAQFPEFGERELVQKNADFIARNSLLYYYRGD | not soluble |
| QSTIKIVLIEDTKTLDEVVVIGYGTQKKSDVSGSVTSVSGDKLSKIPTANAEMALQGMAPGLSVNFGSGAAGSSATLQVRGVTSWKDDDGENSESNGPLVIIDGVPGNMSYLNPEDIKSISVLKDAATAAIYGSRSAAGVILIETHRGT | not soluble |
| MGSDKIHHHHHHMEHLHRKQITNTFTETFPGDLSMNNTTRQTPGVLYCSVLPTPVHHPQLLAWSADVAEMLGLESPVPEDVLILGGNTVNPTMKPYASCYAGHQFGNWAGQLGDGRAISLGFCSGKDSMEYELQLKGAGPTPYSRNSDGRAVLRSSLREYLMSEAMHYLGVPTTRALSLVSTGDAVLRDMFYNGHAAYEPGAVVLRVAPSFIRFGNFEILAERNNRDLSQQLCDWVITRYYPEIRGEDRVVQLFQAVAERTADMVVQWLRVGFVHGVMNTDNMSILGVTIDYGPYSFVDEYDARFTPNTTDLPGRRYAFGNQAAVAYWNLGRLANALAFLVPETDKLVAVLKNYQDVYETKYYTMMANKLGFDALREDDRLLIDSFEEMLRTVKPDMTMFYQLLIDLPADPGTAADVKQFFQSCFYTEADEALLHTCIAAYSKRIKTNTCSKEVSAEKMRAANPRFVLRNYILHEAIEKLEKGDDALLKKLEEYIKQPYSKNADEYFIKRPDWAAQKAGCSMLSCSS | not soluble |
| GPGSMSHNVRPSRYAVSQSKARIFVGQLEPYVTEQDLYPVFSCYGKILHLNIVRHSTTVTPNEERRIPTAFVWYETTTEADAAIAALHNVFTFSSPDEEENKVRYIQVSYADKSPECTPWGRWQKTQAEIMRRTNPSGTGTGSNMPGQYSHITGGGPSTYSSSALNNDGGFTVSATGPAIRSSQSSGDISSMRYPRNPARGLRSMAPHIDHPEVQYYSSYDNLYNLGNRNQLYSMGGAANSMMGYTKHRGMPPHESTSSGDLGRGSTSSFWNMSEEVKKNTAANPNRFRHTARYTAPEPDEDLIMAAPTFTVTSGP | not soluble |
| FVLTPGNPRWENTHLTYRIENYTPDLSREDVDRAIEKAFQLWSNVSPLTFTKVSEGQADIMISFVRGDHRDNSPFDGPGGNLAHAFQPGPGIGGDAHFDEDERWTKNFRDYNLYRVAAHELGHSLGLSHSTDIGALMYPNYIYTGDVQLSQDDIDGIQAIYGPSENPVQPSGPQTPQVCDSKLTFDAITTLRGELMFFKDRFYMRTNSFYPEVELNFISVFWPQVPNGLQAAYEIADRDEVRFFKGNKYWAVRGQDVLYGYPKDIHRSFGFPSTVKNIDAAVFEEDTGKTYFFVAHECWRYDEYKQSMDTGYPKMIAEEFPGIGNKVDAVFQKDGFLYFFHGTRQYQFDFKTKRILTLQKANSWFNCRKN | soluble |
| MGSDKIHHHHHHMVSEECSSFFYLHNSDFNMFGKKKNEDYSVKTVKVGVDKLTTIALGTMVKGTITVEGDLRLDGIIEGNVSCRGKVVIGPQGRIKGNVTCTGAVLHGMLQGDIQVAEDLIMKSGCTMNGDVYTCKLEIESKARFNGTCNTTEKDTLVTSQVVKPETVDTEK | not soluble |
| MVAVKGLSEREVVADTVIWPIQFTVADNQLSSLFATVDQQTQLITQFLVEKGVDRAAISLSAPAVIDKKAQQYGEDRAEFRYLATQTLTVYSKQVDQVRKIISEIGQLGKQGVVFNQDPYNNRVEFSFTGLNAIKPDMIEEATKQAREVAQKFAKDSQSTLGKIKTASQGQFSITDRDNNTPYIKNVRVVTTVEYYLSDLEHHHHHH | not soluble |
| MGSDKIHHHHHHMRYPEGMALQNKFPILWDCFLQRINDALKATTQEELGRRLGVGKSAITKWRHGSTRGADLQDFLRYCDVLGIDFCGIINGTPTPTYSPSPFEIALTGVLDSFLSVHNLTHEKAASSLWPETANGAAKLGSILTAKEPLTPEVLMQLCLLMEEDPGKLLRLARERVQPEGEQISGNAKSA | not soluble |
